In doi:10.1101/2021.07.02.450866:
One block for each substance: values may come before it.

How the values were obtained:
[1] = target: CE3-HA-B*27:05 (HLA-B*27:05 heavy chain) (human); assay: non-reducing SDS-PAGE and Western blot of precipitated surface class I
[2] = target: GFP-K^b (free heavy chain of H-2K^b with N-terminal monomeric GFP) (murine) (UniProt P01901); assay: single-molecule co-tracking
[3] = target: HA-K^b (free heavy chain of H-2K^b with N-terminal HA tag) (murine) (UniProt P01901); assay: FRAP
[4] = target: isolated, soluble α3 domain of H-2K^b (recombinant) (murine) (UniProt P01901); assay: native MS
[5] = target: isolated, soluble α3 domain of H-2K^b (recombinant) (murine) (UniProt P01901); assay: SEC

stoichiometry N [1]: 2
Substance: CE3-HA-B*27:05 (HLA-B*27:05 heavy chain) (natural protein)

fraction of co-locomoting molecules [2]: 3%
half-life (t½) [2]: 220 ms
koff [2]: 3.1 s⁻¹
stoichiometry N [2]: 2
Substance: GFP-K^b (free heavy chain of H-2K^b with N-terminal monomeric GFP) (from UniProt P01901 22-369) (natural protein)

half-time of dissociation [3]: 140 s
Substance: K^b-GFP (free heavy chain of H-2K^b with C-terminal GFP) (from UniProt P01901 22-369) (natural protein)

stoichiometry N [4]: 2
Kd [5]: 10 to 20 µM
stoichiometry N [5]: 2
Substance: isolated, soluble α3 domain of H-2K^b (recombinant) (from UniProt P01901 205-295) (domain or fragment)
